By Kd is commonly meant the free concentration of one partner at which half of the binding sites on the other are occupied at equilibrium, for simple one-to-one binding.

The results in this text go back to publication PMC4986892 (RNA, 2016).

The target in assay [1] is T1, S. pombe Dcp1:Dcp2RD decapping complex (S. pombe, UniProt Q9P805;O13828).
T1 sequence 1: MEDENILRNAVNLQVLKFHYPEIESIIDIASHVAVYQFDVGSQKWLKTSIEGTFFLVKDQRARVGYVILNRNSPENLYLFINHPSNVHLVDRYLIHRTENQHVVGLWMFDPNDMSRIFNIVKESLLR
T1 sequence 2: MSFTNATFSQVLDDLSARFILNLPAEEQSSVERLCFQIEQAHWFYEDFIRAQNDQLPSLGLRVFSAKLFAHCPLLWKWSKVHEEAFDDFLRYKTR
Briefly: fluorescence polarisation.

The target of assay [2] is T2, S. pombe Dcp1:Dcp2_(RD+CD) decapping complex (S. pombe, UniProt Q9P805;O13828).
T2 sequence 1: T1 sequence 1
T2 sequence 2: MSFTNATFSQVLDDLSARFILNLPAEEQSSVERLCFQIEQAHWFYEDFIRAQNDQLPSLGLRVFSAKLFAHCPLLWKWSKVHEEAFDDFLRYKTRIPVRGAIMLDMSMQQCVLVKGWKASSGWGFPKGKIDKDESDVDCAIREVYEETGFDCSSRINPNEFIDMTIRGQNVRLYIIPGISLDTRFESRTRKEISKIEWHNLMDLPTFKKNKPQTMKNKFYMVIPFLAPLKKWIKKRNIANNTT
Description: fluorescence polarisation. (Fluorescence polarisation rises when a labelled molecule tumbles more slowly, as on binding a larger partner.)

In assay [3] the target is T1, S. pombe Dcp1:Dcp2RD decapping complex. Description: NMR titration.
Assay [4] addresses T3, S. pombe Dcp1 (S. pombe, UniProt Q9P805).
T3 sequence: T1 sequence 1
Description: NMR titration.

The target of assay [5] is T1, S. pombe Dcp1:Dcp2RD decapping complex. Briefly: NMR titration. This is another data set of the same source.

B1: Fluorescently labeled S. pombe Edc1 1–221 (S183C) (domain or fragment)
chain: MQKDIGRRFQRNKKKINSKPGGAMVASSDVEFSLDGMSIMPQRDGNLQIPNFVKPKSTFATSNIGESNGKRNGDKVRGNRRSKSGHSSYAGSRISGGNSNSHLPSGVASAPAGLGIDKVAVGEVDSHLKSVSSYVSNSSGADRSFSSNSSSDTNSILYAGPTFTHSPAASNLPIPTFLHSPVCEKAEWQPPTGSVNSNMPFQFHQSSSVPSTPSEVAMGHN
modifications: 5-(iodoacetamido)-fluorescein on the cysteine introduced by S183C (labeling efficiency ~50%)
On to B1, for which the Kd in assay [1] stood at 143 nM; in assay [2], 250 nM.

As to SFSSNSSSDTNSILYAGPTFTHSPAASNLPIPTFLHSP [S. pombe Edc1 (144–181), as used for NMR], the binding result in assay [3] was “binds”.

B2: S. pombe Dcp2 C-terminal tail (267–350) (domain or fragment)
chain: STAPSDLATPQPSTFPQPPVESHSSFDIKQKILHLLNEGNEPKSPIQLPPVSNLPLNPPIQSSNSRLSHDNNSFDPFAYLGLDP
Take B2: the binding result in assay [4] is given as “binds”.

In assay [5], VSQGTDSRLVTKPTSTFPSPPSPPSSSVWNKREH [S. pombe Xrn1 (1224–1257)] returned a Kd of 640000 ± 170000 nM.

APSDLATPQPSTFPQPPVESHSSFDIKQKILHLLNEGNEPKSPI (domain or fragment) [S. pombe Dcp2 C-terminal region (269–312)] displayed a Kd in assay [5] of 310000 ± 110000 nM. Against the preceding molecule, the Kd is about 2.1-fold lower.

Turning to GTEIQPIPPSIDPSLYVFP [S. pombe Dhh1 (401–419)], the binding result in assay [3] is listed as “binds”.

B3: S. pombe Xrn1 (1201–1328) (domain or fragment)
chain: TNPQFVVNTRAGKNRKTNVSANNVSQGTDSRLVTKPTSTFPSPPSPPSSSVWNKREHHPKPFSLHQVPPPESLIHKSKSKFSKGNHHSTNGTQSIRGRGGKRGKPLRSKELNRKHDHIVQPMGKLQIN
Turning to B3, in assay [3], the binding result is listed as “binds”.

B4: S. pombe Edc1 (144–215) (domain or fragment)
chain: SFSSNSSSDTNSILYAGPTFTHSPAASNLPIPTFLHSPVSEKAEWQPPTGSVNSNMPFQFHQSSSVPSTPSE
Turning to B4, in assay [2], the Kd worked out at 415 nM.
